Measured values from US20230088277A1 (SHANGHAI SYNVIDA BIOTECHNOLOGY, published 2023).
Numbering of substitutions follows the chain as printed.

T1: 6×His tag human Pear1 extracellular segment (Leu-21-Ser; 754) (human, UniProt Q5VY43 21-754)
T1 construct: range 21-754; The ELISA and the Biacore test only say 'human Pear1 ECD protein' / 'extracellular segment'; also called human Pear1 ECD protein; human Pear1ECD protein; not shown: 6×His tag
T1 sequence (looked up): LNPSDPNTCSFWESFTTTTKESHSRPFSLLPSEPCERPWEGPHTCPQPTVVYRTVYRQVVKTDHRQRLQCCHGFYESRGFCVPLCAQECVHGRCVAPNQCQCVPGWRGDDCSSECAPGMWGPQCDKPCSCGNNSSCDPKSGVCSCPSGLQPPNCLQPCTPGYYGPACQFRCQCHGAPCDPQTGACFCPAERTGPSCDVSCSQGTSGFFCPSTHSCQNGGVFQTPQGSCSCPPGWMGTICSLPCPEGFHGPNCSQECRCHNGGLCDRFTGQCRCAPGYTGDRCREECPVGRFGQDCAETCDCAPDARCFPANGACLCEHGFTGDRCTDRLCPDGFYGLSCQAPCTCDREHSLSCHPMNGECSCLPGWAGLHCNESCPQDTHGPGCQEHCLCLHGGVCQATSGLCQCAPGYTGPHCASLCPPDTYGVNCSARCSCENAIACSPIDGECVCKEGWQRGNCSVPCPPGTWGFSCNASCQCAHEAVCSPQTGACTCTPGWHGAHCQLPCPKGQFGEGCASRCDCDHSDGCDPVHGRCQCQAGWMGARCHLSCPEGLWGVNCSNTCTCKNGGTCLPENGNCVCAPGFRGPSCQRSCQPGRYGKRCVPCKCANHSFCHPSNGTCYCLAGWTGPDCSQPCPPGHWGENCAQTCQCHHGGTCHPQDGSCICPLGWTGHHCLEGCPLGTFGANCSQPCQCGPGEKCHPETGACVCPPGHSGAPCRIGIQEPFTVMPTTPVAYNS

B1: LF2 (antibody, V domains shown)
VH: EVQLQQSGPELVKPGASMKISCKASGYSFTGYPMNWVRQSHVKNLEWIGVINPYNGGTSYNQKFKGKATLTVDKSSSTAYIELLSLTSDDSAVYYCARGGVRPFAYWGQGTLVTVSA
VL: DIQMTQTSSSFSVSLGDRVTITCKASEDIYNRLAWYQQKPGNAPRLLISGATSLETGVPSRFSGSGSGNDYTLSITSLQTEDVATYYCQQYWSTPTFGAGTKLELQ
notes: Mouse monoclonal antibody from hybridoma
B2: LF3 (antibody, V domains shown)
VH: B1 VH with R38K, S40T, V42G, V50L, I81M, D90E, A105D, Y106F
VL: B1 VL
notes: as for B1
B3: LF7 (antibody, V domains shown)
VH: B1 VH with V42G, P53S, T58A, S77N, T78I, A79V, Y80H, I81M, D89E
VL: DIVMTQSQKFMSTSVGDRVSVTCKASQNVDTNVAWYQQKPGQSPKALIYSASYRYSGVPDRFTGSGSGTDFTLTISNVQSEDLAEYFCQQYDSYPYTFGGGTKLEIR
notes: as for B1
B4: LF11 (antibody, V domains shown)
VH: B1 VH with R38K, S40T, V42G, V50L, I81M, D90E, A105D, Y106F
VL: DIVITQSPAIMSASPGEKVTMTCSARSSVSYMYWYQQKPGSSPRLLIYDTSKLASGVPVRFSGSGSGTSYSLTISRMEAEDAATYFCQQWSSYPPTFGGGTKLEIK
notes: as for B1
B5: LF15 (antibody, V domains shown)
VH: EVQLQQSGPELVKPGASMKISCKASGYSFTGYTMNWVKQSHGENLEWIGVINPYNGGTSYNQKFKGKATLTVDKSFSTAYMEILSLTSEDSAVYYCSRGGGNSWFAYWGQGTLVTVSA
VL: DIQMTQTSSYLSVSLGGRVTITCKASDHINNWLAWYQQKPGNAPRLLISGATSLETGVPSRFSGSGSGTDYSLTITSLQTEDVATYYCQQYWSIPTFGGGTRLEIK
notes: as for B1
B6: LF16 (antibody, V domains shown)
VH: EVQLQQSGPELVKPGASMKISCKASGYAFTGYTMNWVKQSHGKNLDWIGVINGYNGGTSYNQKFKGKATLTVDKSSSTAYMELLSLTSEDSAIYYCARGGPTTGFVYWGQGTLVTVSA
VL: B1 VL with N69K, Q106K
notes: as for B1
B7: hLF109 (antibody, V domains shown)
VH: QVQLVQSGAEVKKPGASVKVSCKASGYTFTGYPMNWVRQAPGQNLEWMGVINPYNGGTSYNQKFKGRVTLTVDKSASTAYMELSSLRSEDTAVYYCARGGVRPFAYWGQGTLVTVSS
VL: DIQMTQSPSSLSASVGDRVTITCKASEDIYNRLAWYQQKPGKAPKLLISGATSLETGVPSRFSGSGSGNDFTLTISSLQPEDFATYYCQQYWSTPTFGQGTKLEIK
notes: Humanized antibody
B8: hLF101 (antibody, V domains shown)
VH: B7 VH with V72R
VL: B7 VL
notes: Humanized antibody (CDR grafting with back mutations)
B9: hLF102 (antibody, V domains shown)
VH: B7 VH with V72R
VL: B7 VL with K42N
notes: Humanized antibody
B10: hLF103 (antibody, V domains shown)
VH: B7 VH with V72R
VL: B7 VL with F71Y
notes: Humanized antibody
B11: hLF104 (antibody, V domains shown)
VH: B7 VH with V72R
VL: B7 VL with K42N, F71Y
notes: Humanized antibody
B12: hLF105 (antibody, V domains shown)
VH: B7 VH with Q43K, N44R, V68A, K74T
VL: B7 VL
notes: Humanized antibody
B13: hLF106 (antibody, V domains shown)
VH: B7 VH with Q43K, N44R, V68A, K74T
VL: B7 VL with K42N
notes: Humanized antibody
B14: hLF107 (antibody, V domains shown)
VH: B7 VH with Q43K, N44R, V68A, K74T
VL: B7 VL with F71Y
notes: Humanized antibody
B15: hLF108 (antibody, V domains shown)
VH: B7 VH with Q43K, N44R, V68A, K74T
VL: B7 VL with K42N, F71Y
notes: Humanized antibody
B16: hLF110 (antibody, V domains shown)
VH: B7 VH
VL: B7 VL with K42N
notes: Humanized antibody; also called hLFHO
B17: hLF111 (antibody, V domains shown)
VH: B7 VH
VL: B7 VL with F71Y
notes: Humanized antibody
B18: hLF112 (antibody, V domains shown)
VH: B7 VH
VL: B7 VL with K42N, F71Y
notes: Humanized antibody
B19: hLF113 (antibody, V domains shown)
VH: B7 VH with Q43K, V68A
VL: B7 VL
notes: Humanized antibody
B20: hLF114 (antibody, V domains shown)
VH: B7 VH with Q43K, V68A
VL: B7 VL with K42N
notes: Humanized antibody
B21: hLF115 (antibody, V domains shown)
VH: B7 VH with Q43K, V68A
VL: B7 VL with F71Y
notes: Humanized antibody
B22: hLF116 (antibody, V domains shown)
VH: B7 VH with Q43K, V68A
VL: B7 VL with K42N, F71Y
notes: Humanized antibody
B23: LF2-hIgG4 (antibody, V domains shown)
VH: B1 VH
VL: B1 VL
notes: read from the name as the variable domains of LF2 on human IgG4 constant regions; also called LF2-hlgG 4

Biological target: T1, 6×His tag human Pear1 extracellular …
Experiment: ELISA, plate coated with human Pear1 ECD
Experimental: FIG. 6 The comparison of the affinities of the anti-human Pear1 antibodies to human Pear1. The ELISA plate was coated with human Pear1 ECD proteins and the reactions were conducted between antibodies at different concentrations (2000 ng/mL, 1000 ng/mL, 500 ng/mL, 250 ng/mL, 125 ng/mL, 62.5 ng/mL, 31.25 ng/mL, 15.625 ng/mL, 7.8125 ng/mL, 3.90625 ng/mL, 1.953125 ng/mL, 0.9765625 ng/mL) and the human Pear1 ECD proteins. OD value was measured to obtain the EC 50 value of the antigen-antibody combination
8.2.1 Comparison of antigen binding ability of these antibodies.

Q: B1 was tested. Which EC50 did it give?
A: 0.0111 µg/mL

Q: With B2 as the binder, how does the EC50 read?
A: 0.00927 µg/mL

Q: How did the EC50 turn out when B3 was run?
A: 0.0336 µg/mL

Q: How did the EC50 turn out when B4 was run?
A: 0.00891 µg/mL

Q: How did the EC50 turn out when B5 was run?
A: 0.0807 µg/mL

Q: How did the EC50 turn out when B6 was run?
A: 0.0547 µg/mL

Biological target: T1, 6×His tag human Pear1 extracellular …
Experiment: SPR (Biacore); antibody as ligand, Pear1 extracellular segment

Q: What does the source list for B7?
A: Kd: 6.14 nM; koff: 0.000249 s⁻¹; kon: 40500 M⁻¹ s⁻¹; t1/2: 46.4 min

Q: What does the source list for B8?
A: Kd: 7.67 nM; koff: 0.000393 s⁻¹; kon: 51200 M⁻¹ s⁻¹; t1/2: 29.4 min

Q: How did the Kd turn out when B9 was run?
A: 7.87 nM

Q: And the koff?
A: 0.000395 s⁻¹

Q: What about the kon of the same binder?
A: 50200 M⁻¹ s⁻¹

Q: What about the t1/2 of the same binder?
A: 29.2 min

Q: With B10 as the binder, how does the Kd read?
A: 19 nM

Q: And the koff?
A: 0.000532 s⁻¹

Q: And the kon?
A: 28000 M⁻¹ s⁻¹

Q: And the t1/2?
A: 21.7 min

Q: B11 was tested. Which Kd did it give?
A: 13.3 nM

Q: What about the koff of the same binder?
A: 0.000506 s⁻¹

Q: And the kon?
A: 38000 M⁻¹ s⁻¹

Q: What about the t1/2 of the same binder?
A: 22.8 min

Q: How did the Kd turn out when B12 was run?
A: 3.82 nM

Q: What about the koff of the same binder?
A: 0.000176 s⁻¹

Q: And the kon?
A: 46200 M⁻¹ s⁻¹

Q: What about the t1/2 of the same binder?
A: 65.6 min

Q: What does the source list for B13?
A: Kd: 5.8 nM; koff: 0.000233 s⁻¹; kon: 40100 M⁻¹ s⁻¹; t1/2: 49.7 min

Q: What does the source list for B14?
A: Kd: 6.74 nM; koff: 0.000345 s⁻¹; kon: 51200 M⁻¹ s⁻¹; t1/2: 33.5 min

Q: With B15 as the binder, how does the Kd read?
A: 5.98 nM

Q: What about the koff of the same binder?
A: 0.000307 s⁻¹

Q: What about the kon of the same binder?
A: 51300 M⁻¹ s⁻¹

Q: And the t1/2?
A: 37.7 min

Q: B16 was tested. Which Kd did it give?
A: 5.42 nM

Q: And the koff?
A: 0.000236 s⁻¹

Q: And the kon?
A: 43500 M⁻¹ s⁻¹

Q: And the t1/2?
A: 49 min

Q: How did the Kd turn out when B17 was run?
A: 6.87 nM

Q: What about the koff of the same binder?
A: 0.000271 s⁻¹

Q: What about the kon of the same binder?
A: 39500 M⁻¹ s⁻¹

Q: And the t1/2?
A: 42.6 min

Q: How did the Kd turn out when B18 was run?
A: 4.99 nM

Q: And the koff?
A: 0.000237 s⁻¹

Q: What about the kon of the same binder?
A: 47500 M⁻¹ s⁻¹

Q: And the t1/2?
A: 48.7 min

Q: With B19 as the binder, how does the Kd read?
A: 4.28 nM

Q: What about the koff of the same binder?
A: 0.000201 s⁻¹

Q: And the kon?
A: 47000 M⁻¹ s⁻¹

Q: And the t1/2?
A: 57.4 min

Q: What does the source list for B20?
A: Kd: 5.09 nM; koff: 0.000232 s⁻¹; kon: 45600 M⁻¹ s⁻¹; t1/2: 49.8 min

Q: Which Kd does the source give for B21 here?
A: 5.31 nM

Q: What about the koff of the same binder?
A: 0.000235 s⁻¹

Q: What about the kon of the same binder?
A: 44200 M⁻¹ s⁻¹

Q: What about the t1/2 of the same binder?
A: 49.2 min

Q: With B22 as the binder, how does the Kd read?
A: 5.09 nM

Q: What about the koff of the same binder?
A: 0.000221 s⁻¹

Q: What about the kon of the same binder?
A: 43400 M⁻¹ s⁻¹

Q: And the t1/2?
A: 52.3 min

Q: What does the source list for B23?
A: Kd: 3.52 nM; koff: 0.000187 s⁻¹; kon: 53100 M⁻¹ s⁻¹; t1/2: 61.8 min
